Assay [1] concerns the target T1, Ebola Ivory Coast virus glycoprotein (GP) (Ebola virus, Ivory Coast strain, UniProt Q66810 33-676).
T1 sequence: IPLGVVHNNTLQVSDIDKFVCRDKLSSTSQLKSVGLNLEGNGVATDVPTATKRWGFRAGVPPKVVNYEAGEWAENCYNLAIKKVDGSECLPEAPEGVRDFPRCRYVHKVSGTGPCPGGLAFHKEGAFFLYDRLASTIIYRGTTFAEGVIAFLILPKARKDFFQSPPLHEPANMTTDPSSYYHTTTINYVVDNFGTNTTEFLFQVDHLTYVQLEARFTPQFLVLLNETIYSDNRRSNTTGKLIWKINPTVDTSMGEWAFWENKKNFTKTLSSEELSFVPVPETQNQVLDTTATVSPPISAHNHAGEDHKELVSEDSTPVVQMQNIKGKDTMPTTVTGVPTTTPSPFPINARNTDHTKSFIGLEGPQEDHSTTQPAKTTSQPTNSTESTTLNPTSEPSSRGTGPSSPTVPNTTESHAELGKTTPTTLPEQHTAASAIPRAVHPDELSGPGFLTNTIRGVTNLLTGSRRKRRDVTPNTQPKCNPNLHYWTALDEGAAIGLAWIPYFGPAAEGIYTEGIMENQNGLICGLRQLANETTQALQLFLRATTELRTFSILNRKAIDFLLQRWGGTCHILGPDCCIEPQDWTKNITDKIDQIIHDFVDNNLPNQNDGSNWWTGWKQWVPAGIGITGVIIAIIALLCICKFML
Kind of assay: ELISA on irradiated sucrose-purified virions. A general note: ELISA stands for enzyme-linked immunosorbent assay.

Assay [2] deals with T2, Ebola Sudan (Boniface) virus glycoprotein (GP) (Ebola virus, Sudan strain (isolate …, UniProt Q66814 33-676)).
T2 sequence: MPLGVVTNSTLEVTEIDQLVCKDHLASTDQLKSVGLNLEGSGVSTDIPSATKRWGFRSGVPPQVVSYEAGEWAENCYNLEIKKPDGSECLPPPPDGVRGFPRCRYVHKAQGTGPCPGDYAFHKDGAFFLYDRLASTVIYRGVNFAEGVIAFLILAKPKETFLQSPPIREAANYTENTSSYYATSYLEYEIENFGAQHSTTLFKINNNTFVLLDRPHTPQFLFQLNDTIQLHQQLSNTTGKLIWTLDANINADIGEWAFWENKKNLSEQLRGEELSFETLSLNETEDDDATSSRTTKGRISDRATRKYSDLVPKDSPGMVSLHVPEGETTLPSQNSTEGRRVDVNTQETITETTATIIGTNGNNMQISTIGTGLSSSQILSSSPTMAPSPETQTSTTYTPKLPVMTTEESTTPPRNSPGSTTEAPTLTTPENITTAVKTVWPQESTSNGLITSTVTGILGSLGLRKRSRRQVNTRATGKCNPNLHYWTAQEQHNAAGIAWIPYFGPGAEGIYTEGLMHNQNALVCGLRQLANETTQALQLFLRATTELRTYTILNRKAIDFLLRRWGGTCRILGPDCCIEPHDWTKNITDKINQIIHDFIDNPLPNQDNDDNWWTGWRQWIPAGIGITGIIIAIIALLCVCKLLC
Kind of assay: ELISA on irradiated sucrose-purified virions.

For assay [3], the target named is T3, sGP (secreted glycoprotein) from EboGP-VRP-infected cells (Ebola virus, Zaire strain, Mayinga …, UniProt P60170 33-324).
T3 sequence: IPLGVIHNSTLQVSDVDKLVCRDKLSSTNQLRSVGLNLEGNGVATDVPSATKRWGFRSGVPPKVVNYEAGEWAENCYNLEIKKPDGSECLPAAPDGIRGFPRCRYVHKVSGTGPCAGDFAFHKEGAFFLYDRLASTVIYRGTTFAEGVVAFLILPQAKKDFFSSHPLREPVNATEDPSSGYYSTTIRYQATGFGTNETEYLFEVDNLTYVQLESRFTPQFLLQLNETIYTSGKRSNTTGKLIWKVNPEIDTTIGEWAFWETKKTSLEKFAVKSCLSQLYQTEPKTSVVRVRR
Kind of assay: radioimmunoprecipitation from infected-cell supernatants.

Assay [4] deals with T4, Ebola Zaire 1976 (Mayinga isolate) virus glycoprotein (GP) (Ebola virus, Zaire 1976 strain (isolate …, UniProt Q05320 33-676)).
T4 sequence: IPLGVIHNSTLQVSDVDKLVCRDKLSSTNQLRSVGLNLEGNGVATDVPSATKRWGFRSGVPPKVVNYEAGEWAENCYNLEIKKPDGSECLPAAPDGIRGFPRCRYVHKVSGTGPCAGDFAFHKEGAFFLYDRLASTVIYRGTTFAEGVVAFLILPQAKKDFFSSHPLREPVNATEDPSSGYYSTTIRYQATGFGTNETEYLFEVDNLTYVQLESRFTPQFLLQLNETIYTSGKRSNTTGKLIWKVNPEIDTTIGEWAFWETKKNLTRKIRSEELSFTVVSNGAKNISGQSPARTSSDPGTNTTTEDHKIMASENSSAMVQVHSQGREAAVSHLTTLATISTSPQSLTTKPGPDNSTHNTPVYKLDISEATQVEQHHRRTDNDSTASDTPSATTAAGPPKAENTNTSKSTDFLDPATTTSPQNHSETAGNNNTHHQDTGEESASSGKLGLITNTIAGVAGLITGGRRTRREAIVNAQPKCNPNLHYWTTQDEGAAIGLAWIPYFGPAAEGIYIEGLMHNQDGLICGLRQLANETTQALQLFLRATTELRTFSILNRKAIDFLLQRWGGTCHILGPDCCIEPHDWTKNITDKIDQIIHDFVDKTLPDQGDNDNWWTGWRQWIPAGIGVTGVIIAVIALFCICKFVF
Kind of assay: ELISA on virions.

B1: MAb EGP 13F6-1-2 (antibody, V domains shown)
VH: EVQVVESGGGLVKPGGSLKLSCAASGFAFSSYDMSWVRQTPEKRLEWVAYISRGGGYTYYPDTVKGRFTISRDNAKNTLYLQMSSLKSEDTAMYYCSRHIYYGSSHYYAMDYWGQGTSVTVSS
VL: QLVLTQSSSASFSLGASAKLTCTLSRQHSTYTIEWYQQQPLKPPRYVMELKKDGSHSTGDGIPDRFSGSSSGADRYLSISNIQPEDEAIYICGVGDTIKEQFVYVFGGGTKVTVLG
Turning to B1, the binding result in assay [1], in assay [2] and in assay [3] was “no binding” throughout.

B2: MAb EGP 6D8-1-2 (antibody, V domains shown)
VH: DVKLLESGGGLVQPGGSLKLSCAASGFDFSRYWMSWVRQAPGKGLEWIGEINPDSSTINYTPSLKDKFIISRDNAKNTLYLQMSKVRSEDTALYYCTRQGYGYNYWGQGTTLIVSS
VL: DVLLTQIPLSLPVSLGDQASISCRSSQSIVHSNGNTYLEWYLQKPGQSPKLLIYKASNRFSGVPDRFSGSGSGTDFTLKINRVEAEDLGVYYCLQGSHVPSTFGGGTKLEIKR
B2: the binding result in assay [1] is “no binding”; in assay [2], “no binding”; in assay [3], “no binding”; in assay [4], “binds”.

The values are drawn from patent US20040053865A1 (UNITED STATES OF AMERICA AS REPRESENTED BY THE SECRETARY OF …, published 2004).
